± gives the half width of the 95% confidence interval.
Tests used:
[1] = folding stability dG unfold from trypsin proteolysis; higher = more stable
Experimental: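 Folding stability of de novo designed mini-proteins (<80 aa, no Cys; designed by TrROS, TrMRF, ProteinMPNN and the joint model) was measured by cDNA display proteolysis with trypsin and chymotrypsin. Each protease was used at 11 concentrations in a threefold dilution series plus a no-protease condition. K50 was inferred by Bayesian fitting of sequencing counts, and dG unfold was derived against a sequence-predicted unfolded-state K50 (Tsuboyama et al. method). Sequences shown include variable-length N-terminal GS-type padding (SAGGSAGG...) inside a display construct carrying a PA tag. Rows were kept only if the AF2 dimer inter-PAE was >15, to exclude likely homo-oligomers.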

[2] = folding stability dG unfold (combined trypsin and chymotrypsin); higher = more stable
Method in brief: (§1)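 K50 was inferred by Bayesian fitting of sequencing counts obtained after protease digestion of designed mini-proteins. Unfolding free energy was derived by comparison with a sequence-predicted unfolded-state K50 and a shared folded-state K50, for each protease or both combined. The mini-proteins were under 80 residues, had no cysteine, were carried in a PA-tagged cDNA display construct, and were kept only if AlphaFold2 dimer inter-PAE exceeded 15.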

[3] = folding stability dG unfold from chymotrypsin proteolysis; higher = more stable
Method in brief: as §1

Sequence | folding stability dG unfold [1] | folding stability dG unfold [2] | folding stability dG unfold [3]
SAGGSAGGNVKIEVEPGPNGNYLIKIRMPNGTKVEHQFDSPEDAEERAKDFAEEFPPNAQVEIWSAGGSAGG [r6_464_TrROS] | -0.00876 ± 0.14 kcal/mol | < -1 kcal/mol | –
SAGGSAGGSAGGDVEVKEFTTTDPETGEEIIRVTETIPGNEKIVTTYTKDGKPISTKKILSAGGSAGGSAGG [r7_454_JUSTAS] | -0.0907 ± 0.13 kcal/mol | -0.528 ± 0.24 kcal/mol | –
SAGGFRITPEFLEELLKNMPPGDPNKTITVKVEMPMRYEPRKGGNGQPQYRHEYPMTHEFPITIPPKSAGGS [r16_708_TrROS] | 0.32 ± 0.066 kcal/mol | -0.349 ± 0.19 kcal/mol | –
SAGVEYEVKVEYDPETGTVTAPVTFPDGPEAIVEIEFEEPGRYKMIIRIEEEEKEFEVDPDAIDEITIESAG [r5_14_TrMRF] | -0.551 ± 0.25 kcal/mol | – | –
SAGGSAGGSAGTITTTTDPATGEYTVTIPIASGDGTPVGTIPVTVPKSDPSAAAAFIAATSAGGSAGGSAGG [r11_77_JUSTAS] | 0.106 ± 0.11 kcal/mol | -0.438 ± 0.29 kcal/mol | –
SAGGSAGGSANSSSLPPNYVTPLPITVTDSRPGSYMPLEEREARAQALAEANPGVTVTVVRESAGGSAGGSA [r18_499_JUSTAS] | -0.373 ± 0.099 kcal/mol | < -1 kcal/mol | –
SAGGSAGGSAGERIPIKVSIHDPDGRMVPMEIKEIDPDDGTIEVKLPGLPPGIRSIHIMLSAGGSAGGSAGG [r17_260_TrROS] | -1.01 ± 0.31 kcal/mol | < -1 kcal/mol | –
SAGGSAGGSAGGSMAIPVYLKIENKVLTSLDELKEAVESGKPIEIERIEAFDLSPDEEVSAGGSAGGSAGGS [r4_479_TrMRF] | -0.74 ± 0.35 kcal/mol | < -1 kcal/mol | –
SAGGSAGGLVIRNPDTNELIELKPGEELTITVTVEAPPAEEETTTETETRTLTLTVRLPEEAEESAGGSAGG [r6_273_TrROS_Hall] | 0.156 ± 0.16 kcal/mol | -0.0133 ± 0.21 kcal/mol | –
SAGGSAGGSAGGKVTVEKDKETGKYTVKIVNKKTKKEITVTVPAKDKEKALKKAKELAKSAGGSAGGSAGGS [r10_1117_TrROS_Hall] | -0.349 ± 0.35 kcal/mol | – | –
SAGGEVKFEKNEDGTITVTVKAESEEEALEALKKLLEEQGFEIEEIKVERLPNGEVKITIKIKPKKPSAGGS [r8_253_TrROS_Hall] | 3.65 ± 0.4 kcal/mol | – | –
SAGGSAGGSAGGKAVFLKTKTVTRTVTRKTTKNGKEEEVATETVTTVELVEVDLDNGEASAGGSAGGSAGGS [r10_93_TrROS_Hall] | -0.708 ± 0.37 kcal/mol | – | –
SAGSMKTEEKTEEVPPVTLPFGPSVRVRRVTTTITDPSTGKIKEVTVELFDPAGRRRVDPVKKVPVELLSAG [r14_631_JUSTAS] | 0.794 ± 0.13 kcal/mol | – | –
SAGGSAGGSAGKTIPIDEEEAKALFKAGNPRTITRLLPDGKTETLTYQPETNEVSVLDPKAPSAGGSAGGSA [r18_400_JUSTAS] | -0.795 ± 0.61 kcal/mol | – | –
SAGGSAGGSAGGMILTGDRAEILARLEAEGLGVAEEETVEEGDAPVTPVRVEVPPGAAGSAGGSAGGSAGGS [r10_885_JUSTAS] | – | 0.561 ± 0.11 kcal/mol | 0.972 ± 0.028 kcal/mol
SAGGSAGGSAGGMAVVVDSPEEAEEVIEELERSFPALGAKVVVPRVQVGDKLVLPLGLELSAGGSAGGSAGG [r7_588_TrMRF] | – | -0.501 ± 0.15 kcal/mol | 0.0463 ± 0.068 kcal/mol
SAGGSAGGSAGGMPSSVVINLNLSKEEIEAIKKGKPVSPELKPAIEEAKKEGLKVEIKKSAGGSAGGSAGGS [r10_890_JUSTAS] | – | 0.309 ± 0.13 kcal/mol | 0.796 ± 0.037 kcal/mol
SAGGSAGGSAGGMITVNPRGGTATFTTSSGETTTVPASLADQVRVDTGLPDAPVFTAPPASAGGSAGGSAGG [r7_235_JUSTAS] | – | < -1 kcal/mol | 0.183 ± 0.23 kcal/mol
SAGGSAGGSAGGQPLLARPNDEPIVEVEISETTTLLPNGTVVTTYSVPKKGILTTVTLVSAGGSAGGSAGGS [r10_160_JUSTAS] | – | < -1 kcal/mol | -0.703 ± 0.29 kcal/mol
SAGGGMKTSKVSTSTTTTTVPGTGAPVTVEVTSTTTTFGPNGPAVVTTTSLTYDEAGTPTTTTTTTLSAGGS [r16_200_JUSTAS] | – | -0.133 ± 0.13 kcal/mol | 0.46 ± 0.11 kcal/mol
SAGGSAGGMVITFTAPDGTPLGTVEVELPPNNPEAEEEARELAEALRAELEEAGRPVAATVEPASAGGSAGG [r6_884_JUSTAS] | – | 0.309 ± 0.14 kcal/mol | 0.903 ± 0.088 kcal/mol
SAGGSAGGSMKTVKPTELLASLSPEEEVILTTPTSATRLTVEEVKNVPEDTPVDVEVVPRNAASAGGSAGGS [r12_501_JUSTAS] | – | 0.244 ± 0.051 kcal/mol | 0.685 ± 0.015 kcal/mol
SAGGSAGGSAGGKPITIERNEDNGPIEIRFPGNGRRIHFPFPPGDDITIDAEDGNIEIKSAGGSAGGSAGGS [r10_979_TrROS] | – | 0.314 ± 0.086 kcal/mol | 0.827 ± 0.016 kcal/mol
SAGGGAMLVGETTTSKWIEKTIRNENGEVETKKVKVTTKPVTYKLPDGTLATETKVTIIYPDGSTKEESAGG [r13_113_JUSTAS] | – | -0.181 ± 0.31 kcal/mol | 0.103 ± 0.21 kcal/mol
SAGGGSMVIPVSPEEKEAALKLLEALPSKDVKVTVTDPATGTTTTLTPEEAKKLIEATDTPLVLTLSSAGGS [r16_263_JUSTAS] | – | 3.42 ± 0.16 kcal/mol | 2.92 ± 0.08 kcal/mol

Source: the supplement of paper PMC12764529
